B1: VH59 fused to the VP16 activation domain (pEF-VP16, CHO cells) / GAL4 DNA binding domain (DBD)-LEDGF IBD fusion (pM1, CHO cells) [not stated] (parent complex)
chain 1: EVQLLESGGGLVQPGGSLRLSCAASGFTFSTFSMNWVRQAPGKGLEWVSYISRTSKTIYYADSVKGRFTISRDNSKNTLYLQMNSLRAEDTAVYYCARGGWALGDEIPSSFLEFDYWGQGTLVTVS
chain 2: ETSMDSRLQRIHAEIKNSLKIDNLDVNRCIEALDELASLQVTMQQAQKHTEMITTLKKIRRFKVSQVIMEKSTMLYNKFKNMFLVGE

The first assay covers variants of B1. The assay is described as follows: mammalian two-hybrid luciferase reporter assay in CHO cells; 48 h after transfection; Firefly luciferase normalised to Renilla; read off a plot. Background: A reporter such as luciferase makes a cellular process visible.
Turning to chain 2 L24A, the response is about 0.02.

Consider chain 2 K58A, for which the response is about 0.09.

As for chain 2 K63A, the response was about 0.35.

For the variant chain 2 V64A, the response was about 0.12.

For chain 2 L19A, the response was about 0.08.

As for chain 2 F62A, the response is about 0.05.

In the case of chain 2 K20A, the response is about 0.71.

In the case of chain 2 I21A, the response was about 0.05.

For the variant chain 2 R61A, the response was about 2.

chain 2 D22A: the response was about 0.79.

A further assay covers variants of B1. As to the kind of experiment: mammalian two-hybrid luciferase reporter assay in CHO cells; 48 h after transfection; Firefly/Renilla luciferase; n = 3; read off a plot.
As to chain 1 P108A, the response was about 0.04.

Take chain 1 F111A: the response is about 0.04.

Regarding chain 1 L112A, the response is about 0.05.

With chain 1 S109A, the response is about 0.46.

For the variant chain 1 S110A, the response was about 0.04.

The variants in the next assay derive from B1. The description is as above. The source holds these as a separate data set.
Take chain 1 W117A: the response is about 0.04.

With chain 1 D115A, the response was about 0.04.

In the case of chain 1 L45A, the response is about 1.2.

For chain 1 Y116A, the response was about 0.92.

For chain 1 Y95A, the response was about 0.04.

Source of the values: PMC5715112 (2017).
